Target: GST-RIM2 (KIAA0751) PDZ domain 1 (human)
Assay: modified ELISA, plated GST-RIM2 PDZ domain, biotinylated peptide 0.001-10 µM, curve fit; Relative EC50

B1: … (SEQ ID NO: 170) (peptide)
peptide: YGRKKRRQRRRARGRRETWV
modifications: not checked
Q: With B1 as the binder, how does the EC50 read?
A: < 0.01 µM

— patent publication US20080090770A1, “Modulation of Muc1 Mediated Signal Transduction” (priority 2003, published 2008)
